# Measurements from article PMC2879331 (Clinical cancer research : an official journal of the …, 2008).
# B1: matrix metalloprotease 9 (MMP-9) (enzyme)
# chain: not shown
# Target: the molecule itself
# Assay: non-reducing SDS-PAGE
protein,measurement,value
B1,stoichiometry N,2
